# Changes are numbered by the printed parent chain.
# B1: antibody 1254 (antibody, human IgG1, kappa, V domains shown)
# VH: EVQLVESGGGLVKPGGSLKLSCAASGFAYSTYDMSWVRQTPEKRLEWVAYISSGGDAAYYPDTVKGRFTISRDNAKNTLYLQMSSLKSEDTAMYYCARSRYGNYGDAMDYWGQGTSVTVSS
# VL: DVVMTQTPLSLPVSLGDQASISCRSSQSLVHSNGNTYLHWYLQKPGQSPKLLLYKVSNRFSGVPDRFSGSGSGTDFTLKISRVESEDLGVYFCSQNTHVYTFGGGTKLEIKR
# notes: Chimeric mouse/human IgG1 kappa; also called mAb 1254
# B2: antibody 1284 (antibody, human IgG1, kappa, V domains shown)
# VH: QVQLQQPGAELVKPGASVKLSCKASGYTFTSDWMHWMKQRPGQGLEWIGEINPSNGRSSYNEKFKSKATLTVDKSSSTAYMQLSSLTSEDSAVYYCARIGGIYVETYWGQGTLVTVSS
# VL: DIVLTQSPASLAVSLGQRATISCRASQSVSTSTYSYMHWYQQKSGQPPKLLIKYASNLESGVPARFSGSGSGTDFTLNIHPVEEEDTATYYCQHSWEIPWTFGGGTKLEIKR
# notes: Chimeric mouse/human IgG1 kappa
# B3: antibody 1030 (antibody, human IgG1, kappa, V domains shown)
# VH: EVQLVESGGGLVKPGGSLKLSCAASGFTFSSYALSWVRQTPERRLEWVASISGVGSTYFPDSVKGRFTMSRDNARNILYLQMSSLRSEDTAMYYCARGSDGYFYAMDYWGQGTSVTVSS
# VL: DIVLTQSPASLAVSLGQRATISCRASKSVSTSGYSFMHWYQLKPGQPPKLLIYLASNLESGVPARFSGSGSGTDFTLNIHPVEEEDAATYYCQHSREFPLTFGGGTKLEIKR
# notes: as for B2
# B4: Fab fragment of antibody 1030 (Fab, V domains shown, not shown: small tags and cut ends)
# VH: EVQLVESGGGLVKPGGSLKLSCAASGFTFSSYALSWVRQTPERRLEWVASISGVGSTYFPDSVKGRFTMSRDNARNILYLQMSSLRSEDTAMYYCARGSDGYFYAMDYWGQGTSVTVS
# VL: B3 VL
# B5: antibody 1024 (antibody, human IgG1, kappa, V domains shown)
# VH: QVQLQQPGAELVEPGGSVKLSCKASGYTFTSHWMHWVKQRPGQGLEWIGEINPSSGRNNYNEKFKSKATLTVDKSSSTAYMQFSSLTSEDSAVYYCVRYYGYDEAMDYWGQGTSVTVSS
# VL: DIVMTQAAFSNPVTLGTSASISCRSSKSLLHSNGITYLYWYLQKPGQSPQLLIYQMSNLASGVPDRFSSSGSGTDFTLRISRVEAEDVGVYYCAQNLELPYTFGGGTKLEIKR
# notes: as for B2
# B6: Fab fragment of antibody 1024 (Fab, V domains shown, not shown: small tags and cut ends)
# VH: QVQLQQPGAELVEPGGSVKLSCKASGYTFTSHWMHWVKQRPGQGLEWIGEINPSSGRNNYNEKFKSKATLTVDKSSSTAYMQFSSLTSEDSAVYYCVRYYGYDEAMDYWGQGTSVTVS
# VL: B5 VL
# B7: antibody 992 (antibody, human IgG1, kappa, V domains shown)
# VH: EVQLQQPGSELVRPGASVKLSCKASGYTFTSYWMHWVKQRPGQGLEWIGNIYPGSRSTNYDEKFKSKATLTVDTSSSTAYMQLSSLTSEDSAVYYCTRNGDYYVSSGDAMDYWGQGTSVTVSS
# VL: DIQMTQTTSSLSASLGDRVTISCRTSQDIGNYLNWYQQKPDGTVKLLIYYTSRLHSGVPSRFSGSGSGTDFSLTINNVEQEDVATYFCQHYNTVPPTFGGGTKLEIKR
# notes: Chimeric mouse variable / human IgG1 kappa; the light chain entry includes the human kappa constant region; the end of the range is counted on the printed entry
# B8: Fab fragment of antibody 992 (Fab, V domains shown, not shown: small tags and cut ends)
# VH: EVQLQQPGSELVRPGASVKLSCKASGYTFTSYWMHWVKQRPGQGLEWIGNIYPGSRSTNYDEKFKSKATLTVDTSSSTAYMQLSSLTSEDSAVYYCTRNGDYYVSSGDAMDYWGQGTSVTVS
# VL: B7 VL
# B9: antibody 1260 (antibody, human IgG1, kappa, V domains shown)
# VH: QVQLKESGPGLVAPSQSLSITCTVSGFSLTTYGVHWVRQPPGKGLEWLGVIWAGGSTNYNSALMSRLSIKKDNSKSQVFLKMNSLQTDDTAMYYCARAYGYNFDYWGQGTTLTVSS
# VL: DIQMTQTTSSLSASLGDRVTISCSASQGITNYLNWYQQKPDGTVKLLIYYSSSLHSGVPSRFSGSGSGTDYSLTISNLEPEDIATYYCQQYSEIPYTFGGGTKLELKR
# notes: as for B2
# B10: antibody 1320 (antibody, human IgG1, kappa, V domains shown)
# VH: QVQLQQPGAELVKPGASMKLSCKASGYTFTNYWMHWVKQRPGQGLEWIGEINPSNGRTNYNEKFKSKATLTVDKSSSTAYMQLSSLTSEDSGVYYCAKGGNYYDYDWDYWGQGTTLTVSS
# VL: B9 VL with G28D, T30S, Y50H, S51T, S53T, E93K, I94L, Y96W, L106I
# notes: as for B2
# B11: antibody 1347 (antibody, human IgG1, kappa, V domains shown)
# VH: QVQLKESGPGLVAPSQSLSITCTVSGFSLTGHGVNWVRQPPGKGLEWLGMIWGDGSTDYNSTLKSRLSISKDNSKSQVFLKMNSLQTDDTARYYCARGYGYLYYFDYWGQGTTLTVSS
# VL: ENVLTQSPAIMSASPGEKVTMTCRASSSVSSSYLHWYQQKSGASPKLWIYSTSNLASGVPARFSGSGSGTSYSLTVNSVETEDAATYYCHQYSGFPFTFGSGTKLELKR
# notes: as for B2
# B12: antibody 1261 (antibody, human IgG1, kappa, V domains shown)
# VH: EVQLVESGGGLVKPGGSLKLSCAVSGFTFSSYVMSWVRQTPEKRLEWVATITSGGRNIYYLDSVKGRFTISRDNAKNTLYLQMSSLRSEDTAMYYCARHEDYRYDGYYAMDYWGQGTSVTVSS
# VL: QIVLTQSPAIMSASPGEKVTITCSASSSVSYMHWFQQKPGTSPKLWIYSTSNLASGVPARFSGSGSGTSYSLTISRMEAEDAATYYCQQRSSYPYTFGGGTKLELKR
# notes: as for B2
# Key:
# [1] = molecular target: T1, recombinant human EGFR extracellular domain with 6xHis (human, UniProt P00533 25-645); assay: SPR (BIAcore 2000): IgG captured by anti-human Fc, soluble EGFR ECD injected
# T1 construct: In-house protein; also called 6xHis EGFR ECD; soluble human EGFR ECD; not shown: 6xHis tag
# Procedure: Kinetic analysis of the full length IgG antibodies of the invention was performed on a BIAcore 2000, employing an assay as described in (Canziani, Klakamp, et al. 2004, Anal. Biochem, 325:301-307) allowing measurement of monovalent affinities of whole IgG molecules against soluble antigen. […] The chip surface was regenerated in between cycles by stripping the captured antibody/antigen complexes with a 10 second injection of 100 mM H₃PO₄. […] The association rate constant (ka) and dissociation constant (kd) were evaluated globally from the generated sensograms with the BIA evaluation software 4.1 provided by the manufacturer.
# [2] = molecular target: T1, recombinant human EGFR extracellular …; assay: SPR; EGFR ECD saturated with mix N=6: 1261+1347+992+1024+1030+1361
# Procedure: SPR analysis was performed on a Biacore 3000 machine containing four flow cells. A CM5 Biacore chip was conjugated with 10,000 Resonance units (Ru) polyclonal anti-His antibody to flow cells 1-4 according to the manufacturer's instructions. […] Immediately after antigen injection the maximal binding of the Anti-EGFR mAb without competition was established in each flow cell during a reference run. Briefly 5 μl antibody at a concentration of 40 μg/ml was injected over all flow cells with captured EGFR followed by stripping of the antibody/antigen complex with a low pH acid wash (10 sec. contact time with 10 mM Glycine-HCl, pH2). After the determination of Anti-EGFR antibody maximal binding to each flow cell, a competition run was performed during the same Biacore cycle. Flow cells were first saturated with EGFR ECD antigen followed by injection of different reference antibodies or Anti-EGFR antibodies into separate flow cells using the same antigen saturating conditions as outlined above. This step was immediately followed by a second injection of Anti-EGFR antibody over the flow cell saturated with EGFR antigen and competition antibody to minimize the dissociation of either antigen or blocking antibody. Then the antibody/antigen complexes were stripped off with a low pH acid wash (10 sec. contact time with 10 mM Glycine-HCl, pH 2) and the whole cycle beginning with the reference run was repeated with a new Anti-EGFR antibody. The degree of inhibition of tested Anti-EGFR antibodies were determined by comparing the Ru max value of the individual Anti-EGFR antibody before and after competition by introduction of report points recorded two seconds before and after injection of each sample.
# [3] = molecular target: T2, EGFR-Fc (recombinant EGFR ECD-Fc chimera, R&D Systems 344-ER) (human, UniProt P00533 25-645); assay: SPR (Biacore 2000): EGFR ECD-Fc immobilised on CM5, Fab injected
# T2 construct: Bought; also called immobilized Human EGFR ECD; not shown: Human IgG Fc
# Procedure: To investigate possible differences in antigen presentation between EGFR ECD presented in soluble and immobilized form, a new affinity measurement on an immobilized chimeric EGFR receptor antigen termed EGFR-Fc (R&D Systems, 344-ER), consisting of Human EGFR ECD fused to Human IgG Fc was performed.
# [4] = molecular target: T2, EGFR-Fc (recombinant EGFR ECD-Fc …); assay: SPR, Fab on immobilised EGFR ECD-Fc against IgG with soluble EGFR ECD
# [5] = molecular target: T3, Wild type full length EGFR purified from A431 cells (human, UniProt P00533 25-1210); assay: indirect ELISA, Fab on coated purified full length EGFR, anti-human Fab HRP
# T3 construct: mature; purified from cells and coated on ELISA wells; also called purified full length EGFR; Sigma E3641
# [6] = molecular target: T4, human EGFR expressed on cells (human, UniProt P00533 25-1210); assay: cell ELISA on A431-NS cells (Fab ED50) against SPR KD
# T4 construct: whole, on cells; also called EGFR on A431-NS cells; full length Human EGFR on transfected CHO cells
# [7] = molecular target: T3, Wild type full length EGFR purified …; assay: ELISA: antibody titrated on coated full length EGFR, then biotinylated EGF (blocked ligand), streptavidin-HRP
# Procedure: The next morning wells were washed twice with PBS-T and blocked for one hour with 150 μl PBS-T-1% BSA at room temperature, followed by wash twice in PBS-T. Next 80 μl of serially diluted Anti-EGFR antibodies and control antibodies were added to wells and incubated 30 min at room temperature. […] Subsequently wells were washed five times with PBS-T, followed by incubation with 100 μl/well Streptavidin-HRP secondary reagent diluted 1:1000 in blocking buffer and incubation at room temperature for 30 min. Finally wells were washed five times with PBS-T and plates were developed by adding 100 μL/well TMB substrate and incubated for 60 min. After incubation the reaction was stopped by addition of 1 M H₂SO₄; 100 μl/well and plates were read at OD 450 nm.
Binder,t1/2 [1] [min],Inhibition Sample mAb [2] [%],further results
B1,11.3,,
B2,78.1,,
B3,31.1,87,
B4,,,t1/2 [3]: 57.5 min; fold higher affinity against immobilized antigen as compared to soluble receptor [4]: 10 fold; EC50 (read off the curve) [5]: ~5 nM
B5,2.4,113,
B6,,,t1/2 [3]: 2.3 min
B7,0.2,116,
B8,,,fold difference of the monovalent functional affinity on cells against the value tested with BIAcore [6]: 15 fold; t1/2 [3]: 0.2 min
B9,74.1,,IC50 (read off the curve) [7]: ~40 ng mAb/ml
B10,4.1,,IC50 (read off the curve) [7]: ~20 ng mAb/ml
B11,22.9,80,
B12,3.6,95,
